In PMC6315854, “Cloning, Expression and Characterization of a Novel Cold-adapted β-galactosidase from the Deep-sea Bacterium Alteromonas sp. ML52” (Marine Drugs, 2018):

Tested on: O=[N+]([O-])c1ccccc1O[C@@H]1O[C@H](CO)[C@H](O)[C@H](O)[C@H]1O
Assay: purified protein
Settings: 35 °C, 50 mM sodium phosphate pH 8, ONPG 0.1–5 mM

recombinant Gal (β-galactosidase) (Alteromonas sp.)
Km: 140 µM
Vmax: 465 µmol/min/mg
kcat: 3690 s⁻¹
kcat/Km: 2.63e+07 M⁻¹ s⁻¹
